# According to paper PMC10397247:
# Like-named read-outs stand apart in the source and are kept apart here.
# T1: 4H780-AA
# T1 chain: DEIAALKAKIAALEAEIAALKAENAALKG
# T2: 4H3112-AA
# T2 chain: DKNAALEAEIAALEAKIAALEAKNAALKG
# T3: 4H993-AA
# T3 chain: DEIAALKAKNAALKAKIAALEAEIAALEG
# T4: 4H335-AA
# T4 chain: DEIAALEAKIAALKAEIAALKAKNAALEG
# T5: 4H3844-AA
# T5 chain: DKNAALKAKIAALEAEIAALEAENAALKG
# T6: 4H881-AA
# T6 chain: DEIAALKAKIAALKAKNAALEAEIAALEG
# T7: 4H2754-AA
# T7 chain: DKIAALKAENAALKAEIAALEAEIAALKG
# T8: 4H3343-AA
# T8 chain: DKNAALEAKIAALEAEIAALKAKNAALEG
# T9: 4H2729-AA
# T9 chain: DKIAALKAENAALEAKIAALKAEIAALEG
# T10: 4H48-AA
# T10 chain: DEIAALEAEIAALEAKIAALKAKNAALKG
# T11: 4H2944-AA
# T11 chain: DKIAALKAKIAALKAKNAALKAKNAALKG
# T12: N6-AA
# T12 chain: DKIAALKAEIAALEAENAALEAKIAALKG
# T13: 4H3606-AA
# T13 chain: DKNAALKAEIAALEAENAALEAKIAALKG
# T14: 4H906-AA
# T14 chain: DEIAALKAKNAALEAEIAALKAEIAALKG
# T15: N5-AA
# T15 chain: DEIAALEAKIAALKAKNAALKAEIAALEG
# T16: 4H429-AA
# T16 chain: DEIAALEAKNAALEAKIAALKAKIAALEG
# T17: 4H454-AA
# T17 chain: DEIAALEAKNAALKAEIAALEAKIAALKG
# T18: 4H3655-AA
# T18 chain: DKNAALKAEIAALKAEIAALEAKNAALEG
# T19: 4H566-AA
# T19 chain: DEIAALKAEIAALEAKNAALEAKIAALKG
# T20: 4H3921-AA
# T20 chain: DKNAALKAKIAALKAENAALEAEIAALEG
# T21: 4H317-AA
# T21 chain: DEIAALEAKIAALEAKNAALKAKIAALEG
# T22: 4H2837-AA
# T22 chain: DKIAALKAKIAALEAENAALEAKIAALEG
# T23: 4H3427-AA
# T23 chain: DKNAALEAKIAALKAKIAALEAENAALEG
# T24: 4H794-AA
# T24 chain: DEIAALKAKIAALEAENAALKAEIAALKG
# T25: 4H678-AA
# T25 chain: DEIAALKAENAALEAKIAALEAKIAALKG
# T26: 4H2949-AA
# T26 chain: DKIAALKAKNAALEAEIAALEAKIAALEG
# T27: 4H3627-AA
# T27 chain: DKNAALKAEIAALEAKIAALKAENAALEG
# T28: 4H2883-AA
# T28 chain: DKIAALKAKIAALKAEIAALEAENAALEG
# T29: 4H717-AA
# T29 chain: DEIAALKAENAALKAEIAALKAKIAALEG
# T30: 4H605-AA
# T30 chain: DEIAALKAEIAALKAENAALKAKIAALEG
# T31: 4H342-AA
# T31 chain: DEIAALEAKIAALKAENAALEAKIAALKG
# What was measured:
# Assay in all cases: two-hybrid library CCmax;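 note: natural log of median RNA to DNA barcode read ratio; higher means stronger binding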
# 4H780-AA = target: T1, 4H780-AA; conditions: mean of both orientations
# 4H3112-AA = target: T2, 4H3112-AA; conditions: mean of both orientations
# 4H993-AA = target: T3, 4H993-AA; conditions: mean of both orientations
# 4H335-AA = target: T4, 4H335-AA; conditions: mean of both orientations
# 4H3844-AA = target: T5, 4H3844-AA; conditions: mean of both orientations
# 4H881-AA = target: T6, 4H881-AA; conditions: mean of both orientations
# 4H2754-AA = target: T7, 4H2754-AA; conditions: mean of both orientations
# 4H3343-AA = target: T8, 4H3343-AA; conditions: mean of both orientations
# 4H2729-AA = target: T9, 4H2729-AA
# 4H48-AA = target: T10, 4H48-AA; conditions: mean of both orientations
# 4H2944-AA = target: T11, 4H2944-AA; conditions: mean of both orientations
# N6-AA = target: T12, N6-AA; conditions: mean of both orientations
# 4H3606-AA = target: T13, 4H3606-AA; conditions: mean of both orientations
# 4H906-AA = target: T14, 4H906-AA; conditions: mean of both orientations
# N5-AA = target: T15, N5-AA; conditions: mean of both orientations
# 4H429-AA = target: T16, 4H429-AA; conditions: mean of both orientations
# 4H454-AA = target: T17, 4H454-AA; conditions: mean of both orientations
# 4H3655-AA = target: T18, 4H3655-AA; conditions: mean of both orientations
# 4H566-AA = target: T19, 4H566-AA; conditions: mean of both orientations
# 4H3921-AA = target: T20, 4H3921-AA; conditions: mean of both orientations
# 4H317-AA = target: T21, 4H317-AA; conditions: mean of both orientations
# 4H2837-AA = target: T22, 4H2837-AA; conditions: mean of both orientations
# 4H3427-AA = target: T23, 4H3427-AA; conditions: mean of both orientations
# 4H794-AA = target: T24, 4H794-AA; conditions: mean of both orientations
# 4H678-AA = target: T25, 4H678-AA; conditions: mean of both orientations
# 4H2949-AA = target: T26, 4H2949-AA; conditions: mean of both orientations
# 4H3627-AA = target: T27, 4H3627-AA; conditions: mean of both orientations
# 4H2883-AA = target: T28, 4H2883-AA
# 4H717-AA = target: T29, 4H717-AA; conditions: mean of both orientations
# 4H605-AA = target: T30, 4H605-AA; conditions: mean of both orientations
# 4H342-AA = target: T31, 4H342-AA; conditions: mean of both orientations
Binder,interaction score (4H3112-AA),interaction score (4H993-AA),interaction score (4H3844-AA),interaction score (4H881-AA),interaction score (4H3343-AA),interaction score (4H48-AA),interaction score (4H2944-AA),interaction score (N6-AA),interaction score (4H3606-AA),interaction score (4H906-AA),interaction score (N5-AA),interaction score (4H429-AA),interaction score (4H454-AA),interaction score (4H3655-AA),interaction score (4H566-AA),interaction score (4H317-AA),interaction score (4H3427-AA),interaction score (4H794-AA),interaction score (4H678-AA),interaction score (4H2949-AA),other results
DKIAALKAENAALEAKIAALKAEIAALEG [4H2729-AA],-0.662,1.96,-1.03,-0.0189,-1.17,-0.497,-1.66,1.56,-0.747,1.15,0.643,1.68,1.94,-0.901,0.192,1.37,-1.33,-1.09,1.97,1.85,interaction score (4H780-AA): -1.31; interaction score (4H335-AA): -0.622; interaction score (4H2754-AA): 2.26; interaction score (4H2729-AA): 1.46; interaction score (4H3921-AA): -1.21; interaction score (4H2837-AA): 0.924; interaction score (4H3627-AA): 1.22; interaction score (4H2883-AA; mean of both orientations): -1.1; interaction score (4H717-AA): 1.12; interaction score (4H605-AA): -1.37; interaction score (4H342-AA): 2.18
DKIAALKAKIAALKAEIAALEAENAALEG [4H2883-AA],1.39,-0.35,0.741,-0.297,-0.771,2.1,0.034,1.03,0.716,-1.52,0.696,-0.571,-0.344,0.159,0.102,-0.269,-0.335,-1.54,0.155,0.237,interaction score (4H3627-AA): -0.102; interaction score (4H2883-AA): 1.92; interaction score (4H717-AA): -1.74; interaction score (4H605-AA): -1.31; interaction score (4H342-AA): -0.29
